# Biological target: HECT domain of Nedd4, Y605A (as used for SPR) (UniProt P46934)
# Test: SPR
# HECT domain of Nedd4, Y605A (as used for SPR), sequence (P46934 938-1319 Y1024A): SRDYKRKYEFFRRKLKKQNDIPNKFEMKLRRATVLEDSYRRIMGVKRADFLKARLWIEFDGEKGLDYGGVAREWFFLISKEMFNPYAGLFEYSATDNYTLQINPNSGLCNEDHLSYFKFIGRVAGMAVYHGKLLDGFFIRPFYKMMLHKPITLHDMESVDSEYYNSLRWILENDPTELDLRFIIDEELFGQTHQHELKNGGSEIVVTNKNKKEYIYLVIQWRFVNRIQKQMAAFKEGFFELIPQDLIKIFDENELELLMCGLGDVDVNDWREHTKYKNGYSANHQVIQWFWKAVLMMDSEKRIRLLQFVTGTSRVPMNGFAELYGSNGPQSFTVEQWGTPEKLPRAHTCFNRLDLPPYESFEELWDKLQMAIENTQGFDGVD
substance,measurement,value
ubiquitin (monomeric) (from UniProt P0CG48 1-76) (natural protein),fold decrease in binding against wild-type HECT^Nedd4,20 fold
